Numbering of substitutions follows the chain as printed. One block for each binder: values may come before it.
Experiments:
human c-Met protein [1] = biological target: T1, human c-Met protein (human, UniProt P08581 25-932, limits assumed); test: method not described
T1 construct: also called c-Met antigen

[2] = biological target: c-Met on MKN45 gastric cancer cells and on Caki-1 cells (human, UniProt P08581 25-1390); test: cell-based or functional assay
[3] = biological target: T2, AEPSQ peptide (SEQ ID NO: 78); test: SPR (Biacore), huAbF46 on CM5 chip, peptide injected
T2 peptide: AEPSQ

[4] = biological target: T3, EEPSA peptide (SEQ ID NO: 82); test: as above
T3 peptide: EEPSA

[5] = biological target: T4, EAPSQ peptide (SEQ ID NO: 79); test: as above
T4 peptide: EAPSQ

[6] = biological target: T5, EEASQ peptide (SEQ ID NO: 80); test: as above
T5 peptide: EEASQ

[7] = biological target: T6, AAAAA peptide (SEQ ID NO: 77); test: as above
T6 peptide: AAAAA

[8] = biological target: T7, FSPQIEDPSQCPDCVVSALGAKVL (SEQ ID NO: 71); test: PEPSCAN peptide ELISA
T7 construct: Peptide with the E168D mutation
T7 peptide: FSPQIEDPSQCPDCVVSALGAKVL
Protocol: (§1) For epitope mapping, PEPSCAN-based ELISA was performed using a total number of 529 linear and CLIPS peptides. The peptides were maintained at room temperature for 30 minutes by using a 5% blocking solution to provoke a reaction (4% ovalbumin, 5% horse serum, and 1% Tween 80). […] Thereafter, the resultant product was treated with rabbit-anti-sheep antibody (SIGMA) and washed with PBS, and the washed product was then treated with peroxidase-attached swine-anti-rabbit antibody (SIGMA) and washed with PBS. Then, the resultant product was treated with 2 ul/ml of peroxidase 2,2′-azino-di-3-ethylbenzthiazoline sulfonate (ABTS)(SIGMA) in 3% H₂O₂, and a color reaction was measured after 1 hour.

[9] = biological target: T8, CPQIEDPSQAC (SEQ ID NO: 73); test: PEPSCAN peptide ELISA
T8 peptide: CPQIEDPSQAC
Protocol: as §1

[10] = biological target: T9, CSPQIEDPSQC (SEQ ID NO: 72); test: PEPSCAN peptide ELISA
T9 peptide: CSPQIEDPSQC
Protocol: as §1

[11] = biological target: T10, CIEDPSQAPDC (SEQ ID NO: 75); test: PEPSCAN peptide ELISA
T10 peptide: CIEDPSQAPDC
Protocol: as §1

[12] = biological target: T11, CQIEDPSQAPC (SEQ ID NO: 74); test: PEPSCAN peptide ELISA
T11 peptide: CQIEDPSQAPC
Protocol: as §1

[13] = biological target: T12, CEDPSQAPDAC (SEQ ID NO: 76); test: PEPSCAN peptide ELISA
T12 peptide: CEDPSQAPDAC
Protocol: as §1

[14] = biological target: T13, EEPAQ peptide (SEQ ID NO: 81); test: SPR (Biacore), huAbF46 on CM5 chip, peptide injected 0.39-100 nM
T13 peptide: EEPAQ

[15] = biological target: T14, EEPSQ peptide (SEQ ID NO: 3); test: as above
T14 construct: the range is one residue short
T14 peptide: EEPSQ

human c-Met protein [16] = biological target: T1, human c-Met protein; test: SPR (Biacore), against huAbF46 (Table 3)
Protocol: Affinities of the 4 types of antibodies against c-Met antigen were measured by using a Biacore (GE healthcare). About 80 to 110 RU of each antibody was immobilized on a CM5 chip, and 9 different concentrations ranging from 0.39 nM to 100 nM of human c-Met protein, as an antigen, were injected at a rate of 30 ul/min to obtain kₒₙ values and koff values as shown in Table 3. Then, KD values were calculated based thereon.

T1 sequence (P08581 25-932 limits assumed): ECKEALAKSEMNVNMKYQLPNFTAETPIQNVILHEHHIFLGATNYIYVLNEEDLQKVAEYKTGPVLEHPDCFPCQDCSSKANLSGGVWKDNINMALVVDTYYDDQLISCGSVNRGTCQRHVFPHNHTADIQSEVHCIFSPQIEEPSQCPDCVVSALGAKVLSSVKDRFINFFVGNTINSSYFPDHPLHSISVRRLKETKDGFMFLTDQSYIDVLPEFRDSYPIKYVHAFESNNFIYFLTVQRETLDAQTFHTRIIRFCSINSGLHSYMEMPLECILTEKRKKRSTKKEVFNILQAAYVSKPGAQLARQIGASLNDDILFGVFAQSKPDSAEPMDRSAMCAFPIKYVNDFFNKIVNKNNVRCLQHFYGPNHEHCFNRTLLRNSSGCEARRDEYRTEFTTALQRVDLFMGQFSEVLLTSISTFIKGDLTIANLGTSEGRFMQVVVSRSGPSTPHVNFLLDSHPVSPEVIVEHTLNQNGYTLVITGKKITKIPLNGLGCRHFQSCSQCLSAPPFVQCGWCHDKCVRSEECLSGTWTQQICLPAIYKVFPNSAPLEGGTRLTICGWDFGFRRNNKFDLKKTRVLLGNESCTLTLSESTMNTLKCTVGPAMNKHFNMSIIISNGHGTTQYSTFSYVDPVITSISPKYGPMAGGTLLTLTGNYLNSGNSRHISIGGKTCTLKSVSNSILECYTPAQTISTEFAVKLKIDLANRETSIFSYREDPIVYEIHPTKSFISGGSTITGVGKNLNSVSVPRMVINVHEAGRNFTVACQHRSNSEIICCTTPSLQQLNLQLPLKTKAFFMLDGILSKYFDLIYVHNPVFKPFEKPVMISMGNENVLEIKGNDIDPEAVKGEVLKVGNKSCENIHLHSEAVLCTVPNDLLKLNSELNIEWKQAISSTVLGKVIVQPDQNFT
c-Met on MKN45 gastric cancer cells and on Caki-1 cells, sequence (P08581 25-1390): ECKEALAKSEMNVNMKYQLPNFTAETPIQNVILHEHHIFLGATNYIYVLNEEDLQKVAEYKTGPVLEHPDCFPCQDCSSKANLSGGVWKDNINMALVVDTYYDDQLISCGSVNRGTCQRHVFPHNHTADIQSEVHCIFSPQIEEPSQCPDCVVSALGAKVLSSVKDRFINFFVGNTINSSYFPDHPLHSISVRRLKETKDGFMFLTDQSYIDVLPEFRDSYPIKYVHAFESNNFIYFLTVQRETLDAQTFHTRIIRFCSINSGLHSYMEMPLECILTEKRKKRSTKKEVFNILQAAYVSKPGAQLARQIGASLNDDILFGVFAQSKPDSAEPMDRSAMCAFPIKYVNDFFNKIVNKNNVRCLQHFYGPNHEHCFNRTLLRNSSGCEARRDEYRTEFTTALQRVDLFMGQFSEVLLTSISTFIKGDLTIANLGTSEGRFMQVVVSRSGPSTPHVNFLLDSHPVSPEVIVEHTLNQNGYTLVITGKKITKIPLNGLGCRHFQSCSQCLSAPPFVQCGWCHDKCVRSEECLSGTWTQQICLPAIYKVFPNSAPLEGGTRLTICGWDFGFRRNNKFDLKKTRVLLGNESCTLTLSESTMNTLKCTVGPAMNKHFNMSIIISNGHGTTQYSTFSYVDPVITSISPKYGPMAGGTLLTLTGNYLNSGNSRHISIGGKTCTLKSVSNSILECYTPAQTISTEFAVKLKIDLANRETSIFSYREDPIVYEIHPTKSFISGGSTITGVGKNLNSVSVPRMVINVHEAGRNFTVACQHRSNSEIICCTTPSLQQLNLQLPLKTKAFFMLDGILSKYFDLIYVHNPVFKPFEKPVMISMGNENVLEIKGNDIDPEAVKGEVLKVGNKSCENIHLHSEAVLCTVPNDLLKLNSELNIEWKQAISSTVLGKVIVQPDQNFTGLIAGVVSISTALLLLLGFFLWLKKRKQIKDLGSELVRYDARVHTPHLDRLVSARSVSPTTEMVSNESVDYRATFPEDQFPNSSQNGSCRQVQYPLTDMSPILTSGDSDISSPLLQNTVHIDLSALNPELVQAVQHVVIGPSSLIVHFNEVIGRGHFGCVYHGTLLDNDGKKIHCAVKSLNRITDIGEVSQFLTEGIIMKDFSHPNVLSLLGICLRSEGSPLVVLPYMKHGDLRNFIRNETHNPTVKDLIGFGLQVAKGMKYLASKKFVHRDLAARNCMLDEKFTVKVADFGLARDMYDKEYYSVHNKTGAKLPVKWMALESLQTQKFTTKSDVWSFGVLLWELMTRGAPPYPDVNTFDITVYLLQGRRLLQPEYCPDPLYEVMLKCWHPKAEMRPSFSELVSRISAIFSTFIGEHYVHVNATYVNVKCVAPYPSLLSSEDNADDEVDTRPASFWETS

B1: scFv of huAbF46 antibody (scFv)
scFv: EVQLVESGGGLVQPGGSLRLSCAASGFTFTDYYMSWVRQAPGKGLEWLGFIRNKANGYTTEYSASVKGRFTISRDNSKNTLYLQMNSLRAEDTAVYYCARDNWFAYWGQGTLVTVSSGLGGLGGGGSGGGGSGGSSGVGSDIQMTQSPSSLSASVGDRVTITCKSSQSLLASGNQNNYLAWHQQKPGKAPKMLIIWASTRVSGVPSRFSGSGSGTDFTLTISSLQPEDFATYYCQQSYSAPLTFGQGTKVEIKR
notes: 'VH-linker-VL' form; Tags or display fusion partner not described; also called wild-type antibody (scFv of huAbF46)
binding result (human c-Met protein [1]): binds

B2: huAbF46-H4-A5 (antibody, V domains shown)
VH: EVQLVESGGGLVQPGGSLRLSCAASGFTFTDYYMSWVRQAPGKGLEWLGFIRNKANGYTTEYSASVKGRFTISRDNSKNTLYLQMNSLRAEDTAVYYCARDNWFAYWGQGTLVTVSS
VL: DIQMTQSPSSLSASVGDRVTITCKSSQSLLASGNQNNYLAWHQQKPGKAPKMLIIWASTRVSGVPSRFSGSGSGTDFTLTISSLQPEDFATYYCQQSYSRPFTFGQGTKVEIKR
degree of degradation of c-Met (total c-Met ELISA, MKN45 cells, 5 ug/ml antibody, 24 hours) [2]: ~28%

B4: huAbF46-H4-A1 (antibody, V domains shown)
VH: B2 VH
VL: B2 VL with F102Y
notes: IgG; also called IgG from clone L3-1
fold improvement of affinity (human c-Met protein [16]): 37 times
degree of degradation of c-Met (total c-Met ELISA, MKN45 cells, 5 ug/ml antibody, 24 hours) [2]: ~37%

Continued, in another order:

Kd [14]: 1.43 nM
Kd [15]: 1.64 nM
B3: humanized antibody huAbF46 (H4-heavy chain and H4-light chain) (antibody, human IgG1, kappa, V domains shown)
VH: B2 VH
VL: B2 VL with R100A, F102L
notes: also called humanized antibody AbF46
binding result [3]: no binding (tested: 100 nM to 0.39 nM of the peptides)
binding result [4]: no binding (tested: 100 nM to 0.39 nM of the peptides)
binding result [5]: no binding (tested: 100 nM to 0.39 nM of the peptides)
binding result [6]: no binding (tested: 100 nM to 0.39 nM of the peptides)
binding result [7]: no binding (tested: 100 nM to 0.39 nM of the peptides)
binding result [8]: no binding (tested: 1 to 100 ug/ml of huAbF46 antibody)
binding result [9]: no binding (tested: 1 to 100 ug/ml of huAbF46 antibody)
binding result [10]: no binding (tested: 1 to 100 ug/ml of huAbF46 antibody)
binding result [11]: no binding (tested: 1 to 100 ug/ml of huAbF46 antibody)
binding result [12]: no binding (tested: 1 to 100 ug/ml of huAbF46 antibody)
binding result [13]: no binding (tested: 1 to 100 ug/ml of huAbF46 antibody)

fold improvement of affinity (human c-Met protein [16]): 5 times
degree of degradation of c-Met (total c-Met ELISA, MKN45 cells, 5 ug/ml antibody, 24 hours) [2]: ~28%
B5: huAbF46-H4-A2 (antibody, V domains shown)
VH: B2 VH
VL: B2 VL with Q95G, F102L
notes: IgG; also called IgG from clone L3-2

degree of degradation of c-Met (total c-Met ELISA, MKN45 cells, 5 ug/ml antibody, 24 hours) [2]: ~28%
B6: huAbF46-H4-A3 (antibody, V domains shown)
VH: B2 VH
VL: B2 VL with Q95A, R100H, T103S

Reference: patent US20130089557A1 (SAMSUNG ELECTRONICS, published 2013)
